Results from publication PMC2488374, “Study of a Synthetic Human Olfactory Receptor 17-4: Expression and Purification from an Inducible Mammalian Cell Line” (PLoS ONE, 2008).

Target: the molecule itself
Test: SEC; immunoaffinity-purified hOR17-4 at 0.75 mg/ml on HiLoad 16/60 Superdex 200 in PBS + 0.2% w/v fos-choline-14, 1 ml/min; peak fractions analysed by SDS-PAGE and SYPRO-Ruby staining

B1: human olfactory receptor 17-4 with C-terminal GlyGly linker and rho1D4 tag (hOR17-4-GlyGly-rho1D4) (receptor, UniProt P34982 1-312, looked up)
chain: MDGGNQSEGSEFLLLGMSESPEQQRILFWMFLSMYLVTVVGNVLIILAISSDSRLHTPVYFFLANLSFTDLFFVTNTIPKMLVNLQSHNKAISYAGCLTQLYFLVSLVALDNLILAVMAYDRYVAICCPLHYTTAMSPKLCILLLSLCWVLSVLYGLIHTLLMTRVTFCGSRKIHYIFCEMYVLLRMACSNIQINHTVLIATGCFIFLIPFGFVIISYVLIIRAILRIPSVSKKYKAFSTCASHLGAVSLFYGTLCMVYLKPLHTYSVKDSVATVMYAVVTPMMNPFIYSLRNKDMHGALGRLLDKHFKRLT
notes: human olfactory receptor 17-4 (OR1D2), wild type, 312 amino acids; with GlyGly linker and rho1D4 tag the construct has 323 amino acids; Synthetic, human codon-optimised gene in pcDNA4/To; also called OR1D2; hOR17-4-rho
Q: For B1, which “stoichiometry N” value is on record?
A: The value was 2.
